The test addresses rHA of clade 1 H5N1 virus A/Viet Nam/1203/04 (Influenza A virus A/Viet Nam/1203/2004 …, UniProt Q5EP31, strain). Briefly: ELISA. In general terms: In an ELISA, binding on a coated surface is turned into a signal by an enzyme label.

B1: AVFluIgG03 (antibody, V domains shown)
VH: LESGGGLVQPGGSLRVSCTNSGFTFSDYAMSWVRQAPGKGLEWVSAISGNGGSSTYYADSVKGRFTISRDNSKNTMYLQMNSLRAEDTAVYYCVRDDSYDGGGQYGLHNWFDSWGQGTLVTV
VL: ELTQPPSVSGAPGQRVTISCTGSSSNIGAGYDVHWYQQLPGTAPKLLIYGNSNRPSGVPDRFSGSKSGTSASLAITGLQAEDEADYYCQSYDSSLVVFGGGTKLTVL
notes: also called rhAb AVFluIgG03; AVFluIg03; source: SF9 cells, purified on a Protein A column
As to B1, the binding result was “no binding”.

(Values after publication PMC2674214 (PLoS ONE, 2009).)
